Data taken from the supplement of paper PMC10567573.

B1: MMP1 (parent)
chain: YTPDLPRADVDHAIEKAFQLWSNV

Variants of: B1
Experiment: protein stability index of a GFP-peptide fusion (GPS, HEK-293T) (PSI 1-6); higher = more stable
Settings: c terminus: a fixed tail appended
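Further: lentivirally expressed fusions sorted by FACS into six bins by GFP to DsRed ratio, PSI derived from sequencing read proportions per bin multiplied by bin number.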

Variant	protein stability index
YTPDLPRADVDLAIEKAFQLWSNV [H12L]	2.19
YTPDLPRADVDYAIEKAFQLWSNV [H12Y]	2
YTPDLPRADVDVAIEKAFQLWSNV [H12V]	1.95
YTPDLPRADVDTAIEKAFQLWSNV [H12T]	1.82
YTPDLPRADVDNAIEKAFQLWSNV [H12N]	1.92
YTPDLPRADVDCAIEKAFQLWSNV [H12C]	1.62
YTPDLPRADVDEAIEKAFQLWSNV [H12E]	2.04
YTPDLPRADVDRAIEKAFQLWSNV [H12R]	1.64
YTPDLPRADVDQAIEKAFQLWSNV [H12Q]	1.69
YTPDLPRADVDSAIEKAFQLWSNV [H12S]	1.58
YTPDLPRADVDAAIEKAFQLWSNV [H12A]	2.46
YTPDLPRADVDPAIEKAFQLWSNV [H12P]	2.11
YTPDLPRADVDMAIEKAFQLWSNV [H12M]	1.63
YTPDLPRADVDFAIEKAFQLWSNV [H12F]	1.7
YTPDLPRADVDKAIEKAFQLWSNV [H12K]	1.79
YTPDLPRADVDWAIEKAFQLWSNV [H12W]	2.21
YTPDLPRADVDGAIEKAFQLWSNV [H12G]	2.03
YTPDLPRADVDIAIEKAFQLWSNV [H12I]	2
YTPDLPRADVDDAIEKAFQLWSNV [H12D]	2.09
YTPDLPRADVTHAIEKAFQLWSNV [D11T]	2.62
YTPDLPRADVEHAIEKAFQLWSNV [D11E]	1.4
YTPDLPRADVIHAIEKAFQLWSNV [D11I]	1.94
YTPDLPRADVMHAIEKAFQLWSNV [D11M]	2.12
YTPDLPRADVRHAIEKAFQLWSNV [D11R]	2.69

Variant	protein stability index
YTPDLPRADVWHAIEKAFQLWSNV [D11W]	1.73
YTPDLPRADVYHAIEKAFQLWSNV [D11Y]	1.7
YTPDLPRADVFHAIEKAFQLWSNV [D11F]	2.12
YTPDLPRADVLHAIEKAFQLWSNV [D11L]	1.96
YTPDLPRADVAHAIEKAFQLWSNV [D11A]	2.08
YTPDLPRADVQHAIEKAFQLWSNV [D11Q]	1.83
YTPDLPRADVKHAIEKAFQLWSNV [D11K]	2.21
YTPDLPRADVCHAIEKAFQLWSNV [D11C]	2.17
YTPDLPRADVGHAIEKAFQLWSNV [D11G]	3.41
YTPDLPRADVVHAIEKAFQLWSNV [D11V]	1.59
YTPDLPRADVHHAIEKAFQLWSNV [D11H]	2.07
YTPDLPRADVSHAIEKAFQLWSNV [D11S]	1.96
YTPDLPRADVNHAIEKAFQLWSNV [D11N]	1.63
YTPDLPRADVPHAIEKAFQLWSNV [D11P]	3.09
YTPDLPRALVDHAIEKAFQLWSNV [D9L]	1.3
YTPDLPRAPVDHAIEKAFQLWSNV [D9P]	1.54
YTPDLPRACVDHAIEKAFQLWSNV [D9C]	1.75
YTPDLPRAKVDHAIEKAFQLWSNV [D9K]	2.44
YTPDLPRAMVDHAIEKAFQLWSNV [D9M]	2.31
YTPDLPRAHVDHAIEKAFQLWSNV [D9H]	2.51
YTPDLPRAGVDHAIEKAFQLWSNV [D9G]	2.49
YTPDLPRAAVDHAIEKAFQLWSNV [D9A]	1.38
YTPDLPRAYVDHAIEKAFQLWSNV [D9Y]	2.35
YTPDLPRASVDHAIEKAFQLWSNV [D9S]	2.55

Variant	protein stability index
YTPDLPRAWVDHAIEKAFQLWSNV [D9W]	1.51
YTPDLPRAQVDHAIEKAFQLWSNV [D9Q]	2.5
YTPDLPRAIVDHAIEKAFQLWSNV [D9I]	1.78
YTPDLPRANVDHAIEKAFQLWSNV [D9N]	1.59
YTPDLPRATVDHAIEKAFQLWSNV [D9T]	1.82
YTPDLPRAVVDHAIEKAFQLWSNV [D9V]	2.62
YTPDLPRAEVDHAIEKAFQLWSNV [D9E]	1.75
YTPDLPRARVDHAIEKAFQLWSNV [D9R]	1.16
YTPDLPRAFVDHAIEKAFQLWSNV [D9F]	1.57
YTPDLPRADVDHACEKAFQLWSNV [I14C]	2.1
YTPDLPRADVDHASEKAFQLWSNV [I14S]	1.51
YTPDLPRADVDHAREKAFQLWSNV [I14R]	2.31
YTPDLPRADVDHAYEKAFQLWSNV [I14Y]	2.17
YTPDLPRADVDHAPEKAFQLWSNV [I14P]	2.14
YTPDLPRADVDHATEKAFQLWSNV [I14T]	1.39
YTPDLPRADVDHALEKAFQLWSNV [I14L]	1.39
YTPDLPRADVDHAKEKAFQLWSNV [I14K]	2.14
YTPDLPRADVDHADEKAFQLWSNV [I14D]	1.81
YTPDLPRADVDHAQEKAFQLWSNV [I14Q]	2.3
YTPDLPRADVDHAEEKAFQLWSNV [I14E]	1.36
YTPDLPRADVDHAAEKAFQLWSNV [I14A]	1.68
YTPDLPRADVDHAMEKAFQLWSNV [I14M]	1.7
YTPDLPRADVDHANEKAFQLWSNV [I14N]	1.88
YTPDLPRADVDHAFEKAFQLWSNV [I14F]	2.14

Variant	protein stability index
YTPDLPRADVDHAWEKAFQLWSNV [I14W]	1.46
YTPDLPRADVDHAGEKAFQLWSNV [I14G]	2.25
YTPDLPRADVDHAHEKAFQLWSNV [I14H]	1.62
YTPDLPRADVDHAVEKAFQLWSNV [I14V]	2.08
YTPDLPRADYDHAIEKAFQLWSNV [V10Y]	2.71
YTPDLPRADSDHAIEKAFQLWSNV [V10S]	1.88
YTPDLPRADADHAIEKAFQLWSNV [V10A]	2.06
YTPDLPRADLDHAIEKAFQLWSNV [V10L]	1.27
YTPDLPRADTDHAIEKAFQLWSNV [V10T]	1.91
YTPDLPRADGDHAIEKAFQLWSNV [V10G]	1.96
YTPDLPRADPDHAIEKAFQLWSNV [V10P]	1.49
YTPDLPRADMDHAIEKAFQLWSNV [V10M]	2.56
YTPDLPRADRDHAIEKAFQLWSNV [V10R]	2.55
YTPDLPRADFDHAIEKAFQLWSNV [V10F]	1.79
YTPDLPRADQDHAIEKAFQLWSNV [V10Q]	1.81
YTPDLPRADHDHAIEKAFQLWSNV [V10H]	1.58
YTPDLPRADKDHAIEKAFQLWSNV [V10K]	2.44
YTPDLPRADNDHAIEKAFQLWSNV [V10N]	1.48
YTPDLPRADDDHAIEKAFQLWSNV [V10D]	2.16
YTPDLPRADIDHAIEKAFQLWSNV [V10I]	1.76
YTPDLPRADWDHAIEKAFQLWSNV [V10W]	3.04
YTPDLPRADCDHAIEKAFQLWSNV [V10C]	2.1
